Experimental data taken from publication PMC11975282.

Columns and labels:
[1] = molecular target: Apt1-Flag fusion protein (human), O75608; test: native gel or EMSA; conditions: remark: other sources report otherwise
[2] = molecular target: Apt2-Flag fusion protein (human), O95372; test: native gel or EMSA; conditions: remark: other sources report otherwise

stoichiometry N [1] | stoichiometry N [2] | Binder
2 |  | Apt1-Flag fusion protein, O75608 1-230 (enzyme) MCGNNMSTPLPAIVPAARKATAAVIFLHGLGDTGHGWAEAFAGIRSSHIKYICPHAPVRPVTLNMNVAMPSWFDIIGLSPDSQEDESGIKQAAENIKALIDQEVKNGIPSNRIILGGFSQGGALSLYTALTTQQKLAGVTALSCWLPLRASFPQGPIGGANRDISILQCHGDCDPLVPLMFGSLTVEKLKTLVNPANVTFKTYEGMMHSSCQQEMMDVKQFIDKLLPPID
 | 2 | Apt2-Flag fusion protein, O95372 1-231 (enzyme) MCGNTMSVPLLTDAATVSGAERETAAVIFLHGLGDTGHSWADALSTIRLPHVKYICPHAPRIPVTLNMKMVMPSWFDLMGLSPDAPEDEAGIKKAAENIKALIEHEMKNGIPANRIVLGGFSQGGALSLYTALTCPHPLAGIVALSCWLPLHRAFPQAANGSAKDLAILQCHGELDPMVPVRFGALTAEKLRSVVTPARVQFKTYPGVMHSSCPQEMAAVKEFLEKLLPPV
